Data published in article PMC4264199, “Peptide Array on Cellulose Support—A Screening Tool to Identify Peptides with Dipeptidyl-Peptidase IV Inhibitory Activity within the Sequence of α-Lactalbumin” (International Journal of Molecular Sciences, 2014).
Ends that are not written are not given here.

These substances were tested against T1, dipeptidyl-peptidase IV (DPP-IV) (Homo sapiens, UniProt P27487) (assay: DPP-IV inhibition assay on SPOT-synthesized peptides (cleaved from cellulose membrane)). Settings: peptides cleaved from cellulose membrane, concentration not known (semi-quantitative); averages of four determinations from two experiments.
T1 construct: purchased Creative BioMart (Shirley, NY, USA); host or cells: HEK293 human cells
T1 sequence (P27487 whole entry): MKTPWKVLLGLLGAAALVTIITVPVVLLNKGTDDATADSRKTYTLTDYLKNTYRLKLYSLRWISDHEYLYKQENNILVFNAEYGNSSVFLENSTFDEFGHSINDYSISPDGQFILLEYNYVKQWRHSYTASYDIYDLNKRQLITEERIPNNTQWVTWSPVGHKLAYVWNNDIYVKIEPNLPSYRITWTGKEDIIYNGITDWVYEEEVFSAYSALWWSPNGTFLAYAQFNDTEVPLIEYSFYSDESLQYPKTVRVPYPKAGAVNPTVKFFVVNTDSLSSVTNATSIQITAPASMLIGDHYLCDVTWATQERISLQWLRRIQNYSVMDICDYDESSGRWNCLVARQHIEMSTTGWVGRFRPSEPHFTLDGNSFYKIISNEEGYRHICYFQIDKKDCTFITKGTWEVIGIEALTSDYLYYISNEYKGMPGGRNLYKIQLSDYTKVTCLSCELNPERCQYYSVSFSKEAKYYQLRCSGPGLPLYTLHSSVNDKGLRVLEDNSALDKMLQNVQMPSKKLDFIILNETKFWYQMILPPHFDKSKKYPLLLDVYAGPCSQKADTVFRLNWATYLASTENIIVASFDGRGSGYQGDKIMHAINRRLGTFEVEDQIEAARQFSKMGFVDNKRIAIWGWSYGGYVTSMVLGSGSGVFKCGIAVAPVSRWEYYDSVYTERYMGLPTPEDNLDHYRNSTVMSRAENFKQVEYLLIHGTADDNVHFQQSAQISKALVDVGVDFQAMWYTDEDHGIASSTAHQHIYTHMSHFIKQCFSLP
Format: biochemical
Text: Recombinant human dipeptidyl-peptidase IV (DPP-IV, EC 3.4.14.5, expressed in HEK293 human cells, >95% purity, activity >5500 pmoles Gly–Pro–7-amido-4-methylcoumarin/min/µg) was purchased from Creative BioMart (Shirley, NY, USA) while polyclonal goat DPP-IV antibody and polyclonal donkey anti-goat secondary antibody conjugated to horseradish peroxidase were obtained from R&D Systems (Minneapolis, MN, USA). Pierce™ ECL western blotting substrate and protein-free (TBS) blocking buffer were from Thermo Scientific (Rockford, IL, USA). Gly–Pro–p-nitroanilide (H-Gly–Pro–p-NA∙HCl) was purchased from Bachem Americas (Torrance, CA, USA). Synthesized peptides (≥95% purity) were prepared and purified by GL Biochem (Shanghai) Ltd. (Shanghai, China).
Peptide arrays of deca-peptides spanning the entire α-lactalbumin sequence with a frame shift of one amino acid between successive sequences were prepared by Kinexus Bioinformatics Corporation (Vancouver, BC, Canada). The peptides were synthesized from the C-terminal amino acid using the SPOT technology consisting of the stepwise coupling of the Fmoc-protected amino acids and cleavage of the side chain protection groups. The α-lactalbumin-derived peptides were synthesized on trioxatridecanediamine (TOTD) and β-alanine-modified Whatman 540 cellulose membranes for the binding and inhibition assays, respectively. For the inhibition assay, the peptides were synthesized in large dots (5–7 mm in diameter) and the quality of the synthesis was verified by HPLC analysis of quality controls spots included on the membranes.
In order to determine the effect of the SPOT-synthesized peptides on the activity of the DPP-IV enzyme, the peptides were first cleaved from the cellulose support by incubating the membranes with gaseous ammonia overnight. Peptide spots (5 mm in diameter) were then punched out using a single-hole punch and transferred into microcentrifuge tubes containing 150 µL of acetonitrile (50% in 100 mM Tris–HCl buffer pH 8.0). The peptide solution (50 µL) was pipetted into a 96-well microplate with 35 µL of the chromogenic substrate Gly–Pro–p-NA (0.29 mM in 100 mM Tris–HCl buffer pH 8.0). The mixture was pre-incubated for 10 min at 37 °C, whereupon 15 µL of DPP-IV (25 mU/mL) was added and the enzymatic reaction was carried out for 30 min at 37 °C. The reaction was then terminated by addition of 100 µL of 1 M sodium acetate buffer pH 4.0 and the absorbance of the released p-nitroaniline was measured at 405 nm using a Tecan Infinite® 200 Pro microplate reader (ESBE Scientific, Markham, ON, Canada). Positive and negative controls (DPP-IV activity with no inhibitor and no DPP-IV activity, respectively) were prepared using punched peptide-free cellulose spots from the same membrane used for peptide synthesis, and adding Tris-HCl buffer in place of the sample and in place of the sample and enzyme solution, respectively.
One unit of DPP-IV was defined as the concentration of enzyme that releases 1 µmol per min of p-nitroaniline from Gly–Pro–p-NA (100 µM) at 37 °C and pH 8.0.

Substance | Percent inhibition of DPP-IV activity, SPOT-synthesized deca-peptides
J1: α-lactalbumin-derived deca-peptide, residues 100–109 (Table S1) (GIDYWLAHKA; UniProt P00709 119-128, looked up, fragment) | 25%
B5: α-lactalbumin-derived deca-peptide, residues 16–25 (Table S1) (KGYGGVSLPE; UniProt P00711 35-44, looked up, fragment) | 11%
VSLPEWVCTT [B10] | 15%
A7: α-lactalbumin-derived deca-peptide, residues 7–16 (Table S1) (EVFRELKDLK; UniProt P00711 26-35, looked up, fragment) | 18%
C5: α-lactalbumin-derived deca-peptide, residues 27–36 (Table S1) (ICTMFHTSGY; UniProt P00709 46-55, looked up, fragment) | 16%
C3: α-lactalbumin-derived deca-peptide, residues 25–34 (Table S1) (ELICTMFHTS; UniProt P00709 44-53, looked up, fragment) | 18%
J2: α-lactalbumin-derived deca-peptide, residues 101–110 (Table S1) (IDYWLAHKAL; UniProt P00709 120-129, looked up, fragment) | 18%
ELKDLKGYGG [A11] | 8%
GLFQINNKIW [E7] | 9%
D3: α-lactalbumin-derived deca-peptide, residues 36–45 (Table S1) (YDTQAIVENN; UniProt P00709 55-64, looked up, fragment) | 11%
H8: α-lactalbumin-derived deca-peptide, residues 85–94 (Table S1) (LTDDIMCVKK; UniProt P00711 104-113, looked up, fragment) | 20%
I7: α-lactalbumin-derived deca-peptide, residues 95–104 (Table S1) (ILDKVGINYW; UniProt P00711 114-123, looked up, fragment) | 19%
HTSGYDTQAI [C10] | 11%
INNKIWCKDD [E11, INNKIWCKDD] | 21%
EYGLFQINNK [E5] | 10%
H6: α-lactalbumin-derived deca-peptide, residues 83–92 (Table S1) (DDLTDDIMCV; UniProt P00711 102-111, looked up, fragment) | 19%
I2: α-lactalbumin-derived deca-peptide, residues 90–99 (Table S1) (MCAKKILDIK; UniProt P00709 109-118, looked up, fragment) | 19%
G8: α-lactalbumin-derived deca-peptide, residues 74–83 (Table S1) (NISCDKFLDD; UniProt P00711 93-102, looked up, fragment) | 19%
H2: α-lactalbumin-derived deca-peptide, residues 79–88 (Table S1) (KFLDDDLTDD; UniProt P00711 98-107, looked up, fragment) | 18%
H3: α-lactalbumin-derived deca-peptide, residues 80–89 (Table S1) (FLDDDLTDDI; UniProt P00711 99-108, looked up, fragment) | 18%
I8: α-lactalbumin-derived deca-peptide, residues 96–105 (Table S1) (LDKVGINYWL; UniProt P00711 115-124, looked up, fragment) | 16%
